Assay results reported in article doi:10.1101/2023.06.06.543969 (bioRxiv, 2023).

Target: biotinylated SARS-CoV-2 fusion peptide (Severe acute respiratory syndrome …, biotin on the N-terminus)
Experiment: BLI
Settings: both partners purified

B1: COV44–62 Fab VH R50W (Fab, V domains shown)
VH: QMQLMQSGAEVKKPGASVTVSCKASGDTFSDYRIHWVRQAPGQGLEWMGWMNPKSGDTNFAQKFQGRVTMTRDMSINTAYMTLSGLTFDDTALYYCASLLIVGGFDPLDDFEVWGQGTMVTISS
VL: QSALTQPPSASGSPGQSVTISCSGTSSDVGGYNFVSWYQHHPGKAPKILIYEVTKRPSGVPDRFSGSKSGNTASLTVSGLQAEDEADYYCSSYGGTNNLLFGGGTKLTVL
**Q.** Does B1 bind?
**A.** Result: no binding (tested: 300 nM)
